# Source: US12679878B2, “CRF2 receptor agonists and their use in therapy” (SANOFI, priority 2020, dated 2026)
# Starred links: 1 amine or outer side, 2 acyl side, 3 side chain; linkers in the order of their positions; H or OH if unused. Non-standard residues stand in square brackets, D forms with d. Groups on a side chain read outwards from the residue. No end group written: not given here. *: point of attachment. C18 diacid = O=C(O)CCCCCCCCCCCCCCCCC(=O)*; γGlu = O=C(O)[C@H](CCC(=O)[*:2])N[*:1]; AEEA = NCCOCCOCC(=O)O; Aib = CC(C)(N)C(=O)O
# T1: anti-target CRF1R receptor (UniProt P34998 24-415, limits assumed)
# T1 sequence (looked up): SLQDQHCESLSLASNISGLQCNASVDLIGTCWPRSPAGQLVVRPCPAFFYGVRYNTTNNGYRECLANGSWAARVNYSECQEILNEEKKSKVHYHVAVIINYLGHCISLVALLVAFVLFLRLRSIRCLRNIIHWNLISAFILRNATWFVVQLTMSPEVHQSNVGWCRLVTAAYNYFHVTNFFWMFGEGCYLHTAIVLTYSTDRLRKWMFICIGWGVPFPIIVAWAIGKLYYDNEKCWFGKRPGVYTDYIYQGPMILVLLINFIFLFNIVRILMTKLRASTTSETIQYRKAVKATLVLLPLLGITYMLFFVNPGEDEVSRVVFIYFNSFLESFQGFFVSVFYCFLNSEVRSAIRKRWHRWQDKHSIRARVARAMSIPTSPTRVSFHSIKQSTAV
# B1: peptide of SEQ ID NO: 87 (peptide)
# peptide: IVLSLDVPIKLK([AEEA-AEEA-γGlu-C18 diacid])QILLKQERQKKQREKAKTNKQILAQV-NH2
# modifications: N-terminus assumed
# SMILES: CC[C@H](C)[C@H](N)C(=O)N[C@H](C(=O)N[C@@H](CC(C)C)C(=O)N[C@@H](CO)C(=O)N[C@@H](CC(C)C)C(=O)N[C@@H](CC(=O)O)C(=O)N[C@H](C(=O)N1CCC[C@H]1C(=O)N[C@H](C(=O)N[C@@H](CCCCN)C(=O)N[C@@H](CC(C)C)C(=O)N[C@@H](CCCCNC(=O)COCCOCCNC(=O)COCCOCCNC(=O)CC[C@H](NC(=O)CCCCCCCCCCCCCCCCC(=O)O)C(=O)O)C(=O)N[C@@H](CCC(N)=O)C(=O)N[C@H](C(=O)N[C@@H](CC(C)C)C(=O)N[C@@H](CC(C)C)C(=O)N[C@@H](CCCCN)C(=O)N[C@@H](CCC(N)=O)C(=O)N[C@@H](CCC(=O)O)C(=O)N[C@@H](CCCNC(=N)N)C(=O)N[C@@H](CCC(N)=O)C(=O)N[C@@H](CCCCN)C(=O)N[C@@H](CCCCN)C(=O)N[C@@H](CCC(N)=O)C(=O)N[C@@H](CCCNC(=N)N)C(=O)N[C@@H](CCC(=O)O)C(=O)N[C@@H](CCCCN)C(=O)N[C@@H](C)C(=O)N[C@@H](CCCCN)C(=O)N[C@H](C(=O)N[C@@H](CC(N)=O)C(=O)N[C@@H](CCCCN)C(=O)N[C@@H](CCC(N)=O)C(=O)N[C@H](C(=O)N[C@@H](CC(C)C)C(=O)N[C@@H](C)C(=O)N[C@@H](CCC(N)=O)C(=O)N[C@H](C(N)=O)C(C)C)[C@@H](C)CC)[C@@H](C)O)[C@@H](C)CC)[C@@H](C)CC)C(C)C)C(C)C
# B2: peptide of SEQ ID NO: 83 (peptide)
# peptide: IVLSLD[dV]PIGLK([AEEA-AEEA-γGlu-C18 diacid])QILLKQERQKK[Aib]REQAETNKRILERV-NH2
# modifications: N-terminus assumed
# SMILES: CC[C@H](C)[C@H](N)C(=O)N[C@H](C(=O)N[C@@H](CC(C)C)C(=O)N[C@@H](CO)C(=O)N[C@@H](CC(C)C)C(=O)N[C@@H](CC(=O)O)C(=O)N[C@@H](C(=O)N1CCC[C@H]1C(=O)N[C@H](C(=O)NCC(=O)N[C@@H](CC(C)C)C(=O)N[C@@H](CCCCNC(=O)COCCOCCNC(=O)COCCOCCNC(=O)CC[C@H](NC(=O)CCCCCCCCCCCCCCCCC(=O)O)C(=O)O)C(=O)N[C@@H](CCC(N)=O)C(=O)N[C@H](C(=O)N[C@@H](CC(C)C)C(=O)N[C@@H](CC(C)C)C(=O)N[C@@H](CCCCN)C(=O)N[C@@H](CCC(N)=O)C(=O)N[C@@H](CCC(=O)O)C(=O)N[C@@H](CCCNC(=N)N)C(=O)N[C@@H](CCC(N)=O)C(=O)N[C@@H](CCCCN)C(=O)N[C@@H](CCCCN)C(=O)NC(C)(C)C(=O)N[C@@H](CCCNC(=N)N)C(=O)N[C@@H](CCC(=O)O)C(=O)N[C@@H](CCC(N)=O)C(=O)N[C@@H](C)C(=O)N[C@@H](CCC(=O)O)C(=O)N[C@H](C(=O)N[C@@H](CC(N)=O)C(=O)N[C@@H](CCCCN)C(=O)N[C@@H](CCCNC(=N)N)C(=O)N[C@H](C(=O)N[C@@H](CC(C)C)C(=O)N[C@@H](CCC(=O)O)C(=O)N[C@@H](CCCNC(=N)N)C(=O)N[C@H](C(N)=O)C(C)C)[C@@H](C)CC)[C@@H](C)O)[C@@H](C)CC)[C@@H](C)CC)C(C)C)C(C)C
# B3: peptide of SEQ ID NO: 86 (peptide)
# peptide: IVLSLDVPIKLK([AEEA-AEEA-γGlu-C18 diacid])QILLKQERQKKQREQAKTNKQILAQV-NH2
# modifications: N-terminus assumed
# SMILES: CC[C@H](C)[C@H](N)C(=O)N[C@H](C(=O)N[C@@H](CC(C)C)C(=O)N[C@@H](CO)C(=O)N[C@@H](CC(C)C)C(=O)N[C@@H](CC(=O)O)C(=O)N[C@H](C(=O)N1CCC[C@H]1C(=O)N[C@H](C(=O)N[C@@H](CCCCN)C(=O)N[C@@H](CC(C)C)C(=O)N[C@@H](CCCCNC(=O)COCCOCCNC(=O)COCCOCCNC(=O)CC[C@H](NC(=O)CCCCCCCCCCCCCCCCC(=O)O)C(=O)O)C(=O)N[C@@H](CCC(N)=O)C(=O)N[C@H](C(=O)N[C@@H](CC(C)C)C(=O)N[C@@H](CC(C)C)C(=O)N[C@@H](CCCCN)C(=O)N[C@@H](CCC(N)=O)C(=O)N[C@@H](CCC(=O)O)C(=O)N[C@@H](CCCNC(=N)N)C(=O)N[C@@H](CCC(N)=O)C(=O)N[C@@H](CCCCN)C(=O)N[C@@H](CCCCN)C(=O)N[C@@H](CCC(N)=O)C(=O)N[C@@H](CCCNC(=N)N)C(=O)N[C@@H](CCC(=O)O)C(=O)N[C@@H](CCC(N)=O)C(=O)N[C@@H](C)C(=O)N[C@@H](CCCCN)C(=O)N[C@H](C(=O)N[C@@H](CC(N)=O)C(=O)N[C@@H](CCCCN)C(=O)N[C@@H](CCC(N)=O)C(=O)N[C@H](C(=O)N[C@@H](CC(C)C)C(=O)N[C@@H](C)C(=O)N[C@@H](CCC(N)=O)C(=O)N[C@H](C(N)=O)C(C)C)[C@@H](C)CC)[C@@H](C)O)[C@@H](C)CC)[C@@H](C)CC)C(C)C)C(C)C
# B4: peptide of SEQ ID NO: 85 (peptide)
# peptide: IVLSLDVPIKLK([AEEA-AEEA-γGlu-C18 diacid])QILLKQERQKKQREQAETNKQILAQV-NH2
# modifications: N-terminus assumed
# SMILES: CC[C@H](C)[C@H](N)C(=O)N[C@H](C(=O)N[C@@H](CC(C)C)C(=O)N[C@@H](CO)C(=O)N[C@@H](CC(C)C)C(=O)N[C@@H](CC(=O)O)C(=O)N[C@H](C(=O)N1CCC[C@H]1C(=O)N[C@H](C(=O)N[C@@H](CCCCN)C(=O)N[C@@H](CC(C)C)C(=O)N[C@@H](CCCCNC(=O)COCCOCCNC(=O)COCCOCCNC(=O)CC[C@H](NC(=O)CCCCCCCCCCCCCCCCC(=O)O)C(=O)O)C(=O)N[C@@H](CCC(N)=O)C(=O)N[C@H](C(=O)N[C@@H](CC(C)C)C(=O)N[C@@H](CC(C)C)C(=O)N[C@@H](CCCCN)C(=O)N[C@@H](CCC(N)=O)C(=O)N[C@@H](CCC(=O)O)C(=O)N[C@@H](CCCNC(=N)N)C(=O)N[C@@H](CCC(N)=O)C(=O)N[C@@H](CCCCN)C(=O)N[C@@H](CCCCN)C(=O)N[C@@H](CCC(N)=O)C(=O)N[C@@H](CCCNC(=N)N)C(=O)N[C@@H](CCC(=O)O)C(=O)N[C@@H](CCC(N)=O)C(=O)N[C@@H](C)C(=O)N[C@@H](CCC(=O)O)C(=O)N[C@H](C(=O)N[C@@H](CC(N)=O)C(=O)N[C@@H](CCCCN)C(=O)N[C@@H](CCC(N)=O)C(=O)N[C@H](C(=O)N[C@@H](CC(C)C)C(=O)N[C@@H](C)C(=O)N[C@@H](CCC(N)=O)C(=O)N[C@H](C(N)=O)C(C)C)[C@@H](C)CC)[C@@H](C)O)[C@@H](C)CC)[C@@H](C)CC)C(C)C)C(C)C
# B5: peptide of SEQ ID NO: 99 (peptide)
# peptide: IVLSLDVPIKLK([AEEA-AEEA-γGlu-C18 diacid])KILLKQERQKK[Aib]REQAEKNKQILAQV-NH2
# modifications: N-terminus assumed
# SMILES: CC[C@H](C)[C@H](N)C(=O)N[C@H](C(=O)N[C@@H](CC(C)C)C(=O)N[C@@H](CO)C(=O)N[C@@H](CC(C)C)C(=O)N[C@@H](CC(=O)O)C(=O)N[C@H](C(=O)N1CCC[C@H]1C(=O)N[C@H](C(=O)N[C@@H](CCCCN)C(=O)N[C@@H](CC(C)C)C(=O)N[C@@H](CCCCNC(=O)COCCOCCNC(=O)COCCOCCNC(=O)CC[C@H](NC(=O)CCCCCCCCCCCCCCCCC(=O)O)C(=O)O)C(=O)N[C@@H](CCCCN)C(=O)N[C@H](C(=O)N[C@@H](CC(C)C)C(=O)N[C@@H](CC(C)C)C(=O)N[C@@H](CCCCN)C(=O)N[C@@H](CCC(N)=O)C(=O)N[C@@H](CCC(=O)O)C(=O)N[C@@H](CCCNC(=N)N)C(=O)N[C@@H](CCC(N)=O)C(=O)N[C@@H](CCCCN)C(=O)N[C@@H](CCCCN)C(=O)NC(C)(C)C(=O)N[C@@H](CCCNC(=N)N)C(=O)N[C@@H](CCC(=O)O)C(=O)N[C@@H](CCC(N)=O)C(=O)N[C@@H](C)C(=O)N[C@@H](CCC(=O)O)C(=O)N[C@@H](CCCCN)C(=O)N[C@@H](CC(N)=O)C(=O)N[C@@H](CCCCN)C(=O)N[C@@H](CCC(N)=O)C(=O)N[C@H](C(=O)N[C@@H](CC(C)C)C(=O)N[C@@H](C)C(=O)N[C@@H](CCC(N)=O)C(=O)N[C@H](C(N)=O)C(C)C)[C@@H](C)CC)[C@@H](C)CC)[C@@H](C)CC)C(C)C)C(C)C
# Target: rat CRF2R α receptor (rat, UniProt P47866 20-411)
# Assay: cell-based or functional assay
# Sequence of rat CRF2R α receptor (P47866 20-411): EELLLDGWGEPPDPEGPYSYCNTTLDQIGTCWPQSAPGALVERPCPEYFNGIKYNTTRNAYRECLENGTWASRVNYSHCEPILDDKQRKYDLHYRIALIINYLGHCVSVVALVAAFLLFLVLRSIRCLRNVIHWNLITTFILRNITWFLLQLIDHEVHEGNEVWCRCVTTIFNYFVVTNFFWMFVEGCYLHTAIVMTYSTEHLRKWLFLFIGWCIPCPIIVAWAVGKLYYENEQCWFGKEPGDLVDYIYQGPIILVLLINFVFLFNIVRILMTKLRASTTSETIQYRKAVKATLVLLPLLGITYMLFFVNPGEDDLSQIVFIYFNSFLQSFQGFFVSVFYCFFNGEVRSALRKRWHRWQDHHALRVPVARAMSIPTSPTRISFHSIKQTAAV
row,"EC50 [nM], 0% HSA (cAMP, A7R5 cells)",Binder
1,1.49 nM,B1
2,1.83 nM,B2
3,0.69 nM,B3
4,0.73 nM,B4
5,0.62 nM,B5

# Target: T1, anti-target CRF1R receptor
# Assay: cell-based or functional assay
"EC50[nM] 0% HSA (cAMP, CRF1R-overexpression CHO cells)","Emax (%) (cAMP, CRF1R-overexpression CHO cells)",Binder
> 1000 nM,-0.2%,B1
> 1000 nM,7.51%,B2
> 1000 nM,15.9%,B3
> 1000 nM,0.14%,B4
> 1000 nM,3.25%,B5
